In PMC9844538 (Nature chemical biology, 2022):

Target: MtbGyrBAcore(Y129F) (Mycobacterium tuberculosis, UniProt P9WG45 426-675+P9WG47:2-500, Y129F;internal_change)
Experiment: X-ray crystallography

Does GGCCCTACGGCTGAAAGCCGTAGGGCCCTACGGCTGAAAGCCGTAG (structured_DNA) [singly nicked duplex with GAA triloop ends] bind?
Result: binds
